experiment: soluble on expression in E. coli; label from the status in PepcDB or PDB records

Sequence	soluble on expression in E. coli
MRSMWALLSVADKRGIVDFARGLAELGFRLLATGGTYRALREAGLPVTYISDFTGFPEILEGRVKTLHPKVHAALLARPDQEEELKALGLERIGVLAVNLYPFRETVARGASFAEALEQIDIGGPAMLRAAAKNHQAVLPVCDPEDYPRVLEALKAGPSPDFRQKLARKAFAHTALYDAAIAEWLSGEKFPEEKLLALRREASLRYGENPHQEAALYRVVGERGPLLEAQVLQGKAMSFNNYLDAEAAWNLVSEFAEPACVAVKHQNPCGVALGETPLEAYRKAYEADPVSIFGGIVAFNRPLDGPTAEALAEVFLEVVLAPSFSPEARAVLARKKNLRLLQVPFPAQGPYLDLRRLRGGVLLQDADTEDPAEPKVVTERAPTPEEWPDLRFAWKVVKHVRSNAIVVAKGGMTLGIGVGQTNRLAAARHALEAAGERAKGAVLASDAFFPFDDVVRLAASYGIAAIIQPGGSVRDQDSIRAAEEAGIAMVFTGVRHFRH	soluble
MRSRPTEGNLLVSIGIPFLNPGPYLDLAVRSVFAQTYLNWELILVDDGSTDGSYERAVAIQDPRVRVLRDGQNKGLPARLNEIVRLAKGELVARMDADDAMHPLRLEKQVGFLQANPELDGVTTGAYLIDAEDRPIALLPGRQPSAQEVLARGGFLHPSLLARKSWFEAHPYSLDYPRAEDRELFVRTFKTSRLHVLSEPLYFYRWFGVPRGKTLRIGYRSERKVMWKYGPNLVGWGPSLRLIALSFGKELLTWFLEWTHLEKGFQTRRAFQPLLEMDQREALRTLKVIRETCVPGWDLEHHHHHH	not soluble
MRSVTLPLLMFCLGLAACSGDGGRRPSTCEVISPPDVMVPTEQNRQRVEQQSSGDPTAGQKPVECP	not soluble
MRTIDDRIVHSLNTTVPTASFSGKVDATQTCKELYESLMEAHLSRDKAIKSCIKETSAVVSQLREERAKDSDNLSVIKQLRKEQTKLKLMQSELNVEEVVNDRSLKVFNERCRIHYTPPKIK	soluble
MRTIKLIIAYDGTAYAGFQRQPNGITIQQRLEEALRAVTGEPDLRIGAAAGRTDAGVHARGQVVHLRTYATIPIDRWPAALNGHLPDDIAVIGAEEAPPDFHARYWAREKRYRYTFCLSPYRLPMARLYSYHWHRPVDVDAMRRAAALLVGRHDFAAFRATGGSARTTVRTITRLTLTEEPPFLHLDVTADGFLYNMVRIIAGTLLEVGAGRRSLDRVAQALRHGRREDAGRTLPPHGLCLEEVVYGDGPSIPPWAAEAAPDVDLEP	soluble
MRTIYVIGIGTGSPEFLTLQAISGLRHAQAIVALDKGEQKSDLLALRQKIVDTHAPGTPIYAVTDPERDRNPDNYEEEVRRWHAERAHLLASTIRERTPDDGAVAFLVWGDPSLYDSTLRIIEHMRNLEDLHADVKVIPGITAVQVLTAEHGILINRIGEAIHITTGRNLPETSAKDRRNCVVMLDGKTAWQDVATEHTYMWWGAFLGTEQQVLRKGYVHEIGAQVAELKQQLRTEHGWIMDTYLLRELD	soluble
MRTMKAPSMGATVEVLSFLQPVTRELVHRSSIAEVFVTDGVRTGENAFSVGAQWPRDHALYHPDENGLNDPLLFAETLRQAHFYGAHTYFGVPVGSRFIGQDVSFEITDPTALRVGAAPLAVVLNGTWTEERDRRGRPAGARLDVTLTVDGRPCGRGHTRGLMLDDRRYRLLRGRPAASGEVSPPRPAPDARIARPNRVGRLRWKDCVLERDRPDQDWRLRVDRDHAVLFDHPTDHVPLMVMLEGFRQLGHLTVHEASRRTLGDRAFALAGLSLDCAAFGELGETILLSLEKGPSEGVPTEECALRVAAHQGERLLARADMTWKCVGSRAPWSRFASWLEHHHHHH	not soluble
MRTQWPSPAKLNLFLYITGQRADGYHTLQTLFQFLDYGDTISIELRDDGDIRLLTPVEGVEHEDNLIVRAARLLMKTAADSGRLPTGSGANISIDKRLPMGGGLGGGSSNAATVLVALNHLWQCGLSMDELAEMGLTLGADVPVFVRGHAAFAEGVGEILTPVDPPEKWYLVAHPGVSIPTPVIFKDPELPRNTPKRSIETLLKCEFSNDCEVIARKRFREVDAVLSWLLEYAPSRLTGTGACVFAEFDTESEARQVLEQAPEWLNGFVAKGANLSPLHRAMLLEHHHHHH	not soluble
MRTVAALLFLFTCLESFESSSATPVCTNGFTLINNKCLKLLNTPVNHKAAEISCSSFGATLVTVKNDHDNQAIATIVGSSTPLVWLGLYCFSSNSSQCLWDDESGSARSYNNFSSGFPLVALGQCVYYSTQGALTGKWLSAECESQRMAFVCELPTTFADNCLHNYNGYCYTFSSSPQTFIGAQSTCAQTCGNLASVHSPNENRYITTFAPQDYYYIGAIWKTDYSLRWMDGSAWDYNNIDPIYPNRYNYCLHMSTITTSGSGFWYGDDCSLSRKYVCKREAGVPCTTVPPPVTVRPSSTNPSNCNAGLLMSPGVFTSPNYPQNYFNNENCTYQLSTLGSYRITLKFSNFRTESNYDFVSVYDGPTTSSPSLGRYSGNIGSFYVSSSENNMLVTFTSDAGVVFQGFTARFYSVVHRS	not soluble
MRTVVVIPTYNERDTIERLINDVLAQDKDIHVLVVDDNSPDGTGEIVDRLSEGKGRVHVLHRPGKMGLGSAYRQGFAAALAMDADFIVEMDADYSHDPATLPRFLEAMEGCDLVIGSRYLNGISVVNWPLRRLMLSYFANWYTRLITGLRIMDCTSGFKCFRRRVIESIDMSTIRSDGYSFQIEMNYRCVEKGFQVREIPIIFIDRRSGSSKMSKKIVREAVFMVWKLKLGSVFGALFRLEHHHHHH	not soluble
MRVATFSLVAQDPKTGDLGVAVASKFLAVGAVVPFAEAGVGAIATQSYANPRYGPQGLALLRQGASPEGVLEAFRRTDPGLEKRQFGLVAATGESLTFTGAECHPWAGGVAGKGFAAQGNLLSGSEVVEAMVETFLTAQAPFPERLLLALKAGEEAGGDRRGKQSAALLVVGEGKGYGGLWDRYVDLRVDDHPEPIDELFRLLSLHRLLFERPKGRRPLTEEEVRFFQGVLGRLGLYAGEAHGVFDEATERAFLALIGMENLEERYRGGPEVDEATLSYLKGRYGWS	soluble
MRVAYVLSSPRAASHKLGQMILPQLEAGTHGVEVVGIFFFDDNTLVLQKGNPIGERLAKVAKEKGILLMMCDLCALERGLAEGEPRWCTPEGEGRKTPGTCRVSPHVVEGVEVGCFPDLYRALAGRVDQVITL	soluble
MRVDEFLKERNINVGDFVRITKEEDGEEVTYEGYIMPPYELSAGDTLVLKLENGYNIGIALEKIRRIEVLERAKVKPEVHFEALIEGKPGLPEVTIIGTGGTIASRIDYETGAVYPAFTAEELAKALPEIFEVANVKPKLLFNIFSEDMKPKHWVKIAHEVAKALNSGDYGVVVAHGTDTMGYTAAALSFMLRNLGKPVVLVGAQRSSDRPSSDAAMNLICSVRMATSEVAEVMVVMHGETGDTYCLAHRGTKVRKMHTSRRDAFRSINDVPIAKIWPNGEIEFLRKDYRKRSDEEVEVDDKIEEKVALVKVYPGISSEIIDFLVDKGYKGIVIEGTGLGHTPNDIIPSIERAVEEGVAVCMTSQCIYGRVNLNVYSTGRKLLKAGVIPCEDMLPETAYVKLMWVLGHTQNLEEVRKMMLTNYAGEITPYTRFDTYLR	soluble
MRVISGEYGGRRLKALDGDNTRPTTDKVKESIFNMIGPYFDGGMALDLYSGSGGLAIEAVSRGMDKSICIEKNFAALKVIKENIAITKEPEKFEVRKMDANRALEQFYEEKLQFDLVLLDPPYAKQEIVSQLEKMLERQLLTNEAVIVCETDKTVKLPETIGTLKKTRETVYGITQVTIYRQEA	soluble
MRVMAKIELLAKFTQIALPNSHPLLKKVLNYAKKHFSQCHMLSSSLLILNDTECFKKNYLLNWVYHALECVHEKDISAHSLEEVLQKSHLPIRIKIMAQNTLLEKIEVKVLTFGAEYALFITKHPIAKRFLRQKFSGCVFLETQDELHIRGDSERFWELIVTLNENRIVHNACLDFIYPNGFGKDSYTTMAERKLKECYKTLGFIKHEDFSEVKKRYLELAKTYHPDLCDLKEKKALYAKRFAIIQEAYRHIKKHALEHHHHHH	soluble
MRWKRTLQLLDVHCEGEIGRVVTGGAPKIPGNTVAEQLHWMNTDPQGEALRRFLTLEPRGTPMGSVDLLLPPKHPDAHAAFVILQPDQAHASSGSNSICATTALLESGMVEMQEPETVIILETAAGLVKATATCRDGRCEKVKLTMVPSFVHELDVSIDTPEWGRVTMDISYGGIFYALVDVRQIGLTIEKANAAKLVAAGMTLKDLVNREMTVVHPEIPAISGVAYVMFRDVDADGSIRTCTTMWPGRADRSPCGTGNSANLATLYARGKVKVGDEYKSRSIIGSEFDVGLSAVTEVAGRPAVIPTIAGRGFTFGLHQVGLDPFDPLGDGFAMTDVWGPEAGNI	not soluble
MRYEIADNYYAFWFRFVYPNRKLVERELYKEALELVKRDYNHYMGRVFEKASLDFLWKRFAFERAGRWWSREEEIDVVGVKRGMAYFFEVKWKDLSEREARRSLEHHHHHH	not soluble
MRYIMASPINSGIMMANLCPSTFLDKNRNVAAELDIKNNEKKYSPGSNFAKWMLQEIKRLILNIMSGSRSINTDILDYFHPMPGTENNGNRTWVAATGEDEYIEIKQTGDKSFNITLVGRDKPSRKEIPYSGVAVATIIKSLSEKTSALETHSADTVLRKKLVNSIVMKNTDFNYEIPAGILSNIYDLLKLRIKKDEGYVPVQESFKRTDVFFDSMIMDAH	not soluble
MRYQKLEIQEANWQWKYLLKKHREGENITKHTEQSLIELKVQFLTTLQHSPAEIEQWIKAEMTAEQRKRMRQSIRAKRKRFFNAEKLTTKKKSIDLDYASWLRLSKYSKTHAMTLSETINHLIDERENQHLYSEQMAKMKASLKDLLK	not soluble
MRYWLMKSEPSEVSIDDLAARPGQTVPWDGVRNYQARNFMRNQMQPGDLVFFYHSSCPEPGIAGVVEVSRLAYPDETQFDSASKYFDPKSTRENPRWFNVEVRFLRKTRLLSLRELRSYPELAGMRILQKGNRLSITPVDPSEWKFIEAKLQSLEHHHHHH	not soluble
MSAACWEEPWGLPGGFAKRVLVTGGAGFIASHMIVSLVEDYPNYMIINLDKLDYCASLKNLETISNKQNYKFIQGDICDSHFVKLLFETEKIDIVLHFAAQTHVDLSFVRAFEFTYVNVYGTHVLVSAAHEARVEKFIYVSTDEVYGGSLDKEFDESSPKQPTNPYASSKAAAECFVQSYWEQYKFPVVITRSSNVYGPHQYPEKVIPKFISLLQHNRKCCIHGSGLQTRNFLYATDVVEAFLTVLKKGKPGEIYNIGTNFEMSVVQLAKELIQLIKETNSESEMENWVDYVNDRPTNDMRYPMKSEKIHGLGWRPKVPWKEGIKKTIEWYRENFHNWKNVEKALEPFPV	soluble
MSAEGLDKDFCGAIIPDSFFPIEKLRNYTDMGIIREFAKGSAIIMPGEDTTSMIFLMDGKIKLDIIFEDGSEKLLYYAGSNSLIGRLYPTGNNIYATAMEQTRTCWFSEECLRVIFRTDEDMIFEIFKNYLTKVAYYARQVAEINTYNPTIRILRLFYELCSSQGKRVGDTYEITMPLSQKSIGEITGAHHVTVSKVLACLKKENILDKKKNKFIVYNLEELKHLSEQTSYY	soluble
MSAEPEFVAARFLPEGERFLVEPLGGGLINRTWLVSPAASPRFVLQRLNTRVFAHPGRITVNLCRIQGRVKQGRSGLAEHWPDLVAPRAGGDAFIDAEGGYWRAQRYLEGSRVLEHIATERQALEVGRVLGTFHAALGEIDCTELEDTLPDFHIAPAYLARLDAVRTSAGAADPSVRQALDFVEARRDFVPVLERAKAAGRLALRIIHGDPKLANILFDRDGERALTLIDLDTVKPGLVHYDIGDCLRSCCNRSGESSDDPGAARFDLALCEAILRGYLAAAGDMLTAEDRDHLYDAIRLIPLELGIRFLADHLAGDVYFRVESRGQNLRRARVQFRLVECIEADETAIRRIVAAPSPSMETGEGLEHHHHHH	not soluble

— the DeepSol protein solubility set
